B1: Tuftelin-interacting protein 11 (Homo sapiens), Q9UBB9 (parent)
chain: MSLSHLYRDGEGRIDDDDDERENFEITDWDLQNEFNPNRQRHWQTKEEATYGVWAERDSDDERPSFGGKRARDYSAPVNFISAGLKKGAAEEAELEDSDDEEKPVKQDDFPKDFGPRKLKTGGNFKPSQKGFAGGTKSFMDFGSWERHTKGIGQKLLQKMGYVPGRGLGKNAQGIINPIEAKQRKGKGAVGAYGSERTTQSMQDFPVVDSEEEAEEEFQKELSQWRKDPSGSKKKPKYSYKTVEELKAKGRISKKLTAPQKELSQVKVIDMTGREQKVYYSYSQISHKHNVPDDGLPLQSQQLPQSGKEAKAPGFALPELEHNLQLLIDLTEQEIIQNDRQLQYERDMVVNLFHELEKMTEVLDHEERVISNLSKVLEMVEECERRMQPDCSNPLTLDECARIFETLQDKYYEEYRMSDRVDLAVAIVYPLMKEYFKEWDPLKDCTYGTEIISKWKSLLENDQLLSHGGQDLSADAFHRLIWEVWMPFVRNIVTQWQPRNCDPMVDFLDSWVHIIPVWILDNILDQLIFPKLQKEVENWNPLTDTVPIHSWIHPWLPLMQARLEPLYSPIRSKLSSALQKWHPSDSSAKLILQPWKDVFTPGSWEAFMVKNIVPKLGMCLGELVINPHQQHMDAFYWVIDWEGMISVSSLVGLLEKHFFPKWLQVLCSWLSNSPNYEEITKWYLGWKSMFSDQVLAHPSVKDKFNEALDIMNRAVSSNVGAYMQPGARENIAYLTHTERRKDFQYEAMQERREAENMAQRGIGVAASSVPMNFKDLIETKAEEHNIVFMPVIGKRHEGKQLYTFGRIVIYIDRGVVFVQGEKTWVPTSLQSLIDMAK

Variants of: B1
Details: with zmat2_human ZMAT2, Q96NC0
Chain of zmat2_human ZMAT2, Q96NC0 (Q96NC0 whole entry): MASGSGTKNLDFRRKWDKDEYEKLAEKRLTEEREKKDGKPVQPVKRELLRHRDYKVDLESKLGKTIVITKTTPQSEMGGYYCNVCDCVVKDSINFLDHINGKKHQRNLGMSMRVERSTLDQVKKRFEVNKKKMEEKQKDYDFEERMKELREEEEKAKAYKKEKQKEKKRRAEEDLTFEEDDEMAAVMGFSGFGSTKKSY

Row | Variant | effect of a mutation on the interaction
1 | R8Q | with no effect
2 | S688L | with no effect

Variants of: B1
Details: with cox5b_human COX5B

Row | Variant | effect of a mutation on the interaction
3 | R8Q | with no effect
4 | S688L | with no effect

Variants of: B1
Details: with txlna_human TXLNA

Row | Variant | effect of a mutation on the interaction
5 | R8Q | with no effect
6 | S688L | with no effect

Variants of: B1
Details: with hook1_human HOOK1, Q9UJC3
Chain of hook1_human HOOK1, Q9UJC3 (Q9UJC3 whole entry): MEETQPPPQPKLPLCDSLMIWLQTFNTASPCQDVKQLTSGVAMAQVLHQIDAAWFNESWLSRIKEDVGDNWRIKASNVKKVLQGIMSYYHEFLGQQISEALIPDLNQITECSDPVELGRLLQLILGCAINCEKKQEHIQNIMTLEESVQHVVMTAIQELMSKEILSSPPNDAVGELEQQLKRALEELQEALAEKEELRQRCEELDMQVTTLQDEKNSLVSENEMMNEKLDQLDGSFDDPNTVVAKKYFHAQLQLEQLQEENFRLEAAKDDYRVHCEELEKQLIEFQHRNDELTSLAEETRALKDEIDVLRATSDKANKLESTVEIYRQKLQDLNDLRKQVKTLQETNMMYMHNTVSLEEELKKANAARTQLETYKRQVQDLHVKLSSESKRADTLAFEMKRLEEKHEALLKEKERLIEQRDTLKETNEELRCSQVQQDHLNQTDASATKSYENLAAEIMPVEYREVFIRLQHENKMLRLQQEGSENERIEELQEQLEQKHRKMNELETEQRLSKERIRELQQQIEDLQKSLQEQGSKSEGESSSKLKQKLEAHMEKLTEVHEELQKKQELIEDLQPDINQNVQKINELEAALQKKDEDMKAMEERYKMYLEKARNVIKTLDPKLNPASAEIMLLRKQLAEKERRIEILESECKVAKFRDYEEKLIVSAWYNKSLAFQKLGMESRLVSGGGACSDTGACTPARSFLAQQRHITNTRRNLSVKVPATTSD

Row | Variant | effect of a mutation on the interaction
7 | R8Q | with no effect
8 | S688L | with no effect

Variants of: B1
Details: with tnnt1_human TNNT1, P13805
Chain of tnnt1_human TNNT1, P13805 (P13805 whole entry): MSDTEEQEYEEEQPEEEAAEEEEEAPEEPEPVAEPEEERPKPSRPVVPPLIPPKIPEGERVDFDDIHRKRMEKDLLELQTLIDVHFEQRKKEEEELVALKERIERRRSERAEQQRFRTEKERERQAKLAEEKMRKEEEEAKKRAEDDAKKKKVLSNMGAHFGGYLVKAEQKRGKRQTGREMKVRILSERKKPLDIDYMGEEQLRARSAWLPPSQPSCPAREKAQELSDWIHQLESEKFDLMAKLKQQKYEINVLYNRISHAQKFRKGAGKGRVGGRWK

Row | Variant | effect of a mutation on the interaction
9 | R8Q | with no effect
10 | S688L | with no effect

Variants of: B1
Details: with coq8a_human COQ8A

Row | Variant | effect of a mutation on the interaction
11 | R8Q | with no effect
12 | S688L | with no effect

Variants of: B1
Details: with smce1_human SMARCE1, Q969G3
Chain of smce1_human SMARCE1, Q969G3 (Q969G3 whole entry): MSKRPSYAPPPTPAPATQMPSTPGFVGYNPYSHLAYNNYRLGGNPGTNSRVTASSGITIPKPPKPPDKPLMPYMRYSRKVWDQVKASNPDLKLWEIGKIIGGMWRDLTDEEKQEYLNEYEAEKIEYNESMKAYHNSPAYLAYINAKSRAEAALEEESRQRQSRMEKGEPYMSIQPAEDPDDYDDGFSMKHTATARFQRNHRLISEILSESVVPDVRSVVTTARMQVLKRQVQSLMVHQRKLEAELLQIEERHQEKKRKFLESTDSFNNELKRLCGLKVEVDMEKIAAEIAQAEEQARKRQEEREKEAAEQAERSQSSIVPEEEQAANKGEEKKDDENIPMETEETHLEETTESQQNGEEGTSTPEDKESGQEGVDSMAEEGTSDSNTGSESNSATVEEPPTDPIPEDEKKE

Row | Variant | effect of a mutation on the interaction
13 | R8Q | with no effect
14 | S688L | with no effect

Variants of: B1
Details: with bmf_human BMF

Row | Variant | effect of a mutation on the interaction
15 | R8Q | with no effect
16 | S688L | with no effect

Variants of: B1
Details: with fa13c_human FAM13C

Row | Variant | effect of a mutation on the interaction
17 | R8Q | with no effect
18 | S688L | with no effect

Variants of: B1
Details: with prp31_human PRPF31, Q8WWY3
Chain of prp31_human PRPF31, Q8WWY3 (Q8WWY3 whole entry): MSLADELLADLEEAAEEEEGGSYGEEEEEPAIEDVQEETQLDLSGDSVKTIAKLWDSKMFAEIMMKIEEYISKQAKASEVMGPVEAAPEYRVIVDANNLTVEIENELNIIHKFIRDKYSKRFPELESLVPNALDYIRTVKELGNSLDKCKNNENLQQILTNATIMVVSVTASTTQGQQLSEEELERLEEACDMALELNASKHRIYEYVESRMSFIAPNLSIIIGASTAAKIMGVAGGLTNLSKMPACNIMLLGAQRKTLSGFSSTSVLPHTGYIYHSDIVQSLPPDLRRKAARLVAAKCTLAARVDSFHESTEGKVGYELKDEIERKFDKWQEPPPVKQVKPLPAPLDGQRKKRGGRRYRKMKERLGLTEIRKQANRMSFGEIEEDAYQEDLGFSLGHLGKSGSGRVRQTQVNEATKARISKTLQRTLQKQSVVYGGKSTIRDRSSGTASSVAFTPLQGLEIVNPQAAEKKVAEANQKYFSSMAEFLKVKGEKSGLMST

Row | Variant | effect of a mutation on the interaction
19 | R8Q | with no effect
20 | S688L | with no effect

Variants of: B1
Details: with snw1_human SNW1, Q13573
Chain of snw1_human SNW1, Q13573 (Q13573 whole entry): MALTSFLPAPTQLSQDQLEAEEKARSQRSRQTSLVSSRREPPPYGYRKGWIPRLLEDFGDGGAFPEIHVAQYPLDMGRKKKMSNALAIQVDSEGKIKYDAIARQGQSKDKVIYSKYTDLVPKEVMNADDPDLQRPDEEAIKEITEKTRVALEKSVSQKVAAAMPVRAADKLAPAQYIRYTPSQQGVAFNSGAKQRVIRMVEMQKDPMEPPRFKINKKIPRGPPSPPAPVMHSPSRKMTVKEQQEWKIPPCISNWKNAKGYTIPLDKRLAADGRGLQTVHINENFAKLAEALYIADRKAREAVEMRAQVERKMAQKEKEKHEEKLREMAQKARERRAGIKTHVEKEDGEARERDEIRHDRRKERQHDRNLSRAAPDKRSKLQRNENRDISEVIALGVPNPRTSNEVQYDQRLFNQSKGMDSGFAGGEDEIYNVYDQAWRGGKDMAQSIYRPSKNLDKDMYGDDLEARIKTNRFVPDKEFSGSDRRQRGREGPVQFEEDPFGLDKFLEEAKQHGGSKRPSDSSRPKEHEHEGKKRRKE

Row | Variant | effect of a mutation on the interaction
21 | R8Q | with no effect
22 | S688L | with no effect

Variants of: B1
Details: with sfr1_human SFR1, Q86XK3
Chain of sfr1_human SFR1, Q86XK3 (Q86XK3 whole entry): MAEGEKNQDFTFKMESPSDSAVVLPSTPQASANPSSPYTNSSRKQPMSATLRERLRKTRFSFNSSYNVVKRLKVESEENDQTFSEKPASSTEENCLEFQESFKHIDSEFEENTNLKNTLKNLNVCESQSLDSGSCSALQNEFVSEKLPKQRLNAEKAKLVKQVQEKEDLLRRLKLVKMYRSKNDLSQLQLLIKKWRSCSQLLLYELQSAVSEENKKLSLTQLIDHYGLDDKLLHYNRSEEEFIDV

Row | Variant | effect of a mutation on the interaction
23 | R8Q | with no effect
24 | S688L | with no effect

Variants of: B1
Details: with zfy26_human ZFYVE26, Q68DK2

Row | Variant | effect of a mutation on the interaction
25 | R8Q | with no effect
26 | S688L | with no effect

Variants of: B1
Details: with abi2_human ABI2, Q9NYB9
Chain of abi2_human ABI2, Q9NYB9 (Q9NYB9 whole entry): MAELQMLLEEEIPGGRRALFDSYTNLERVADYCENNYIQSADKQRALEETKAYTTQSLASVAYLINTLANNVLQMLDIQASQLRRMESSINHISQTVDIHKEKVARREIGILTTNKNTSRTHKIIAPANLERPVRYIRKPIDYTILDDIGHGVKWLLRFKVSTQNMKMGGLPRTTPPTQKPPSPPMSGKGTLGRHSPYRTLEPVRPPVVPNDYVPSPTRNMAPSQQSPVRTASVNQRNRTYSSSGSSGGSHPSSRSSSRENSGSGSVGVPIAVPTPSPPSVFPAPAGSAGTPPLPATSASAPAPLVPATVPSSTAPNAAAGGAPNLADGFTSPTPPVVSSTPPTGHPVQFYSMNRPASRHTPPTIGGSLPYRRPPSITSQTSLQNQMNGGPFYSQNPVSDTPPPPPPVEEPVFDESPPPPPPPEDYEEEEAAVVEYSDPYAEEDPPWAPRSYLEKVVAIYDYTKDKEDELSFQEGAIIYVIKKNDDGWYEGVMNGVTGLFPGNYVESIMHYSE

Row | Variant | effect of a mutation on the interaction
27 | R8Q | with no effect
28 | S688L | with no effect

Variants of: B1
Details: with cc121_human CCDC121, Q6ZUS5
Chain of cc121_human CCDC121, Q6ZUS5 (Q6ZUS5 whole entry): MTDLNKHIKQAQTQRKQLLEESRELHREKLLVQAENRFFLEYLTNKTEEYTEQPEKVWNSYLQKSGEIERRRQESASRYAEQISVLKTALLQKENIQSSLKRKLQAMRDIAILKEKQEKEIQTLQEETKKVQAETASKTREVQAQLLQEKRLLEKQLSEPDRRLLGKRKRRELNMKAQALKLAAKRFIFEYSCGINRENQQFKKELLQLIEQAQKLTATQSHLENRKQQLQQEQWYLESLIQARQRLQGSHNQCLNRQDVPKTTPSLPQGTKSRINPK

Row | Variant | effect of a mutation on the interaction
29 | R8Q | with no effect
30 | S688L | with no effect

Variants of: B1
Details: with KRT6A

Row | Variant | effect of a mutation on the interaction
31 | R8Q | with no effect
32 | S688L | with no effect

Reference: IntAct's records for PubMed 31515488
